# Measurements published in patent US20240343800A1 (Merck KGaA, published 2024).
# Positions count from the first letter of the chain named.
# B1: 82H02 TCE #1 (sequence optimized 82H02 bispecific TCE in Format 1A, high ROR1 / high CD3 affinity) (bispecific antibody)
# heavy 1: EVQLVESGGGLVQPGGSLKLSCAASGFTFNTYAMNWVRQASGKGLEWVGRIRSKYNNYATYYADSVKGRFTISRDDSKNTLYLQMNSLKTEDTAVYYCVRHGNFGASYVSWFAYWGQGTMVTVSSASTKGPSVFPLAPSSKSTSGGTAALGCLVKDYFPEPVTVSWNSGALTSGVHTFPAVLQSSGLYSLSSVVTVPSSSLGTQTYICNVNHKPSNTKVDKKVEPKSCDKTHTCPPCPAPEAAGGPSVFLFPPKPKDTLMISRTPEVTCVVVDVSHEDPEVKFNWYVDGVEVHNAKTKPREEQYNSTYRVVSVLTVLHQDWLNGKEYKCKVSNKALGAPIEKTISKAKGQPFRPEVHLLPPSREEMTKNQVSLTCLARGFYPKDIAVEWESNGQPENNYKTTPSRQEPSQGTTTFAVTSKLTVDKSRWQQGNVFSCSVMHEALHNHYTQKTISLSPGK
# heavy 2: EIVLTQSPATLSLSPGERATLSCRASQSVSSYLAWYQQKPGQAPRLLIYDASNRATGIPARFSGSGSGTDFTLTISSLEPEDFAVYYCQQRSNWPPSTFGQGTRLEIKGGGGSGGGGSGGGGSGGGGSEVQLLESGGGLVQPGGSLRLSCAASGFTFTSYAMSWVRQAPGKGLEWVSTISGSGGGTYYTDSVKGRFTISRDNSKNTLYLQMNSLRAEDTAVYYCAQGSSIFDYWGQGTLVTVSSEPKSSDKTHTCPPCPAPEAAGGPSVFLFPPKPKDTLMISRTPEVTCVVVDVSHEDPEVKFNWYVDGVEVHNAKTKPREEQYNSTYRVVSVLTVLHQDWLNGKEYKCKVSNKALGAPIEKTISKAKGQPREPQVYTLPPPSEELALNELVTLTCLVKGFYPSDIAVEWLQGSQELPREKYLTWAPVLDSDGSFFLYSILRVAAEDWKKGDTFSCSVMHEALHNHYTQKSLDRSPGKGGGGSGGGGSGGGGSGGGGSEIVLTQSPATLSLSPGERATLSCRASQSVSSYLAWYQQKPGQAPRLLIYDASNRATGIPARFSGSGSGTDFTLTISSLEPEDFAVYYCQQRSNWPPSTFGQGTRLEIKGGGGSGGGGSGGGGSGGGGSEVQLLESGGGLVQPGGSLRLSCAASGFTFTSYAMSWVRQAPGKGLEWVSTISGSGGGTYYTDSVKGRFTISRDNSKNTLYLQMNSLRAEDTAVYYCAQGSSIFDYWGQGTLVTVSS
# light: QAVVTQEPSLTVSPGGTVTLTCRSSTGAVTTSNYANWVQQKPGQAPRGLIGGTNKRAPGTPARFSGSLLGGKAALTLSGVQPEDEAEYYCALWYSNLWVFGGGTKLTVLGQPKAAPSVTLFPPSSEELQANKATLVCLISDFYPGAVTVAWKADSSPVKAGVETTTPSKQSNNKYAASSYLSLTPEQWKSHRSYSCQVTHEGSTVEKTVAPTECS
# notes: also called 82H02 #1; 82H02 VL1.07x1F3.5-VH1.03
# B2: 82H02 TCE #2 (sequence optimized 82H02 bispecific TCE in Format 1A, high ROR1 / low CD3 affinity) (bispecific antibody)
# heavy 1: B1 heavy 1 with A106N
# heavy 2: B1 heavy 2
# light: B1 light with A2T, R23A, G48A
# notes: also called 82H02 #2; 82H02 VL1.07x1F3.5-VH1.01-VL1.01
# What was measured:
# human ROR1 (on cells) [1] = molecular target: T1, human ROR1 (on cells) (human, UniProt Q01973 30-937); assay: cell-based or functional assay
# [2] = molecular target: T2, mouse ROR1 (on 4T1 cells engineered to overexpress it) (mouse, UniProt Q9Z139 30-937); assay: flow cytometry, 4T1 cells overexpressing mouse ROR1
# T2 construct: whole, on cells; also called muROR1; mROR1
# Procedure: (§1) After 15-minutes of incubation at room temperature, the cells were washed twice with 200 μL of PBS by centrifugation at 500×g for 5 minutes at room temperature and resuspended in […] of 10% goat serum in BD staining buffer (BD Biosciences, Cat No: 554657). […] The plates were then covered with foil to avoid direct light and incubated for 60 minutes at 4° C. […] After incubating for 30 minutes at 4° C., the cells were washed twice with 200 μL of PBS by centrifugation at 500×g for 5 minutes at room temperature and resuspended into 100 μL of fixation buffer (BioLegend, Cat No: 420801). The samples were then analyzed on a flow cytometer for binding signal using FlowJo software. ROR and CD3 binding EC₅₀s (concentration vs mean fluorescence intensity (MFI)) for reference molecules and test bispecific TCEs were obtained using 4-parameter non-linear regression curve fitting in GraphPad Prism.
# [3] = molecular target: T2, mouse ROR1 (on 4T1 cells engineered to …); assay: flow cytometry; reference: human ROR1 on MDA-MB-231 cells
# human ROR1 (on cells) [4] = molecular target: T1, human ROR1 (on cells); assay: cell-based or functional assay; remark: listed apart in the source
# human ROR1 (on cells) [5] = molecular target: T1, human ROR1 (on cells); assay: cell-based or functional assay; remark: listed apart in the source
# human ROR1 (on cells) [6] = molecular target: T1, human ROR1 (on cells); assay: cell-based or functional assay; remark: listed apart in the source
# human ROR1 (on cells) [7] = molecular target: T1, human ROR1 (on cells); assay: flow cytometry, ROR1+ MDA-MB-231 cells
# Procedure: as §1
# [8] = molecular target: T3, human CD3 (on Jurkat T cells or human CD8+ T cells) (human, UniProt P07766 23-207; P09693 23-182; P04234 22-171; P20963 22-164); assay: flow cytometry, human CD8+ T cells
# T3 construct: Entries are printed with signal peptides; also called huCD3; CD3ε
# Procedure: as §1
# [9] = molecular target: T4, cynomolgus CD3 (on cynomolgus pan-T cells) (cynomolgus, UniProt Q95LI5 22-198); assay: flow cytometry, cynomolgus pan-T cells
# T4 construct: whole, on cells
# Procedure: as §1
# T3 sequence (P07766 23-207 limits assumed, chain 1 of 4): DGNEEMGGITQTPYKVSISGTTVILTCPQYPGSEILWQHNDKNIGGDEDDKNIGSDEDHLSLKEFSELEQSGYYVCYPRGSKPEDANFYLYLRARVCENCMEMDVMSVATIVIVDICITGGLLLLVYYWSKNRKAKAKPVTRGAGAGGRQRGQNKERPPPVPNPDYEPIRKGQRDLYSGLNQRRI
# T3 sequence (P09693 23-182 limits assumed, chain 2 of 4): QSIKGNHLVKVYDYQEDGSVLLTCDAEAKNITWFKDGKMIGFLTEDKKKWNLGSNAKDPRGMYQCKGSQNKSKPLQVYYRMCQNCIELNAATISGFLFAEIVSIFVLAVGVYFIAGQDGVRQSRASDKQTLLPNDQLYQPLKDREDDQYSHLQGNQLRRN
# T3 sequence (P04234 22-171 limits assumed, chain 3 of 4): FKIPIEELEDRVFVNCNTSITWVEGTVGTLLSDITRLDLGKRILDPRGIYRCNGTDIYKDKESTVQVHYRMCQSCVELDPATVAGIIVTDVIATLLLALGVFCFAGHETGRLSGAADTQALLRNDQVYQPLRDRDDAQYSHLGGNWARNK
# T3 sequence (P20963 22-164 limits assumed, chain 4 of 4): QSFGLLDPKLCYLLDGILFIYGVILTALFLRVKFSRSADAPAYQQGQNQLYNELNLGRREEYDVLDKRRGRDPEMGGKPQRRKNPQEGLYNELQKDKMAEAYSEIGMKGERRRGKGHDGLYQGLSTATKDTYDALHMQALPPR
# T4 sequence (Q95LI5 22-198): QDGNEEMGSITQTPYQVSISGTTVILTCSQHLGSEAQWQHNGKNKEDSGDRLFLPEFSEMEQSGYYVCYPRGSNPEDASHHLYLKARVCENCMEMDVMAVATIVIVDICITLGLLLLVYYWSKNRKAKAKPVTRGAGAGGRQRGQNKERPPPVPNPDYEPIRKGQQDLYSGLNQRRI
Binder,"IFNγ release AUC, PBMCs: MDA-MB-231-0.2 (human ROR1 (on cells) [1])","IFNγ release AUC, PBMCs: MDA-MB-231-0.4 (human ROR1 (on cells) [1])","IFNγ release AUC, PBMCs: MDA-MB-231-0.6 (human ROR1 (on cells) [1])","IFNγ release AUC, PBMCs: MDA-MB-231-1.3 (human ROR1 (on cells) [1])","IFNγ release AUC, PBMCs: MDA-MB-231-7 (human ROR1 (on cells) [1])","IFNγ release EC50, PBMCs: MDA-MB-231-0.2 (human ROR1 (on cells) [1]) [nM]","IFNγ release EC50, PBMCs: MDA-MB-231-0.4 (human ROR1 (on cells) [1]) [nM]","IFNγ release EC50, PBMCs: MDA-MB-231-0.6 (human ROR1 (on cells) [1]) [nM]","IFNγ release EC50, PBMCs: MDA-MB-231-1.3 (human ROR1 (on cells) [1]) [nM]","IFNγ release EC50, PBMCs: MDA-MB-231-7 (human ROR1 (on cells) [1]) [nM]","IFNγ release Emax, PBMCs: MDA-MB-231-0.2 (human ROR1 (on cells) [1]) [%]","IFNγ release Emax, PBMCs: MDA-MB-231-0.4 (human ROR1 (on cells) [1]) [%]","IFNγ release Emax, PBMCs: MDA-MB-231-0.6 (human ROR1 (on cells) [1]) [%]","IFNγ release Emax, PBMCs: MDA-MB-231-1.3 (human ROR1 (on cells) [1]) [%]","IFNγ release Emax, PBMCs: MDA-MB-231-7 (human ROR1 (on cells) [1]) [%]",EC50 [2] [nM],fold difference in apparent ROR1 binding affinity between human and mouse ROR1 [3] [fold],"TDCC AUC, PBMCs: MDA-MB-231-0.2 (human ROR1 (on cells) [4])","TDCC AUC, PBMCs: MDA-MB-231-0.4 (human ROR1 (on cells) [4])","TDCC AUC, PBMCs: MDA-MB-231-0.6 (human ROR1 (on cells) [4])",further results
B1,2.09e+06,2.43e+06,3.15e+06,4.93e+06,5.16e+06,0.143,0.123,0.0803,0.0243,0.0204,2860,3050,3980,5260,5420,2.19,~3,39000,50200,57100,"TDCC AUC, PBMCs: MDA-MB-231-1.3 (human ROR1 (on cells) [4]): 64800; TDCC AUC, PBMCs: MDA-MB-231-7 (human ROR1 (on cells) [4]): 74200; TDCC EC50, PBMCs: MDA-MB-231-0.2 (human ROR1 (on cells) [4]): 0.0119 nM; TDCC EC50, PBMCs: MDA-MB-231-0.4 (human ROR1 (on cells) [4]): 0.0103 nM; TDCC EC50, PBMCs: MDA-MB-231-0.6 (human ROR1 (on cells) [4]): 0.01 nM; TDCC EC50, PBMCs: MDA-MB-231-1.3 (human ROR1 (on cells) [4]): 0.00703 nM; TDCC EC50, PBMCs: MDA-MB-231-7 (human ROR1 (on cells) [4]): 0.00433 nM; TDCC Emax, PBMCs: MDA-MB-231-0.2 (human ROR1 (on cells) [4]): 40.7%; TDCC Emax, PBMCs: MDA-MB-231-0.4 (human ROR1 (on cells) [4]): 52.2%; TDCC Emax, PBMCs: MDA-MB-231-0.6 (human ROR1 (on cells) [4]): 60.2%; TDCC Emax, PBMCs: MDA-MB-231-1.3 (human ROR1 (on cells) [4]): 66.5%; TDCC Emax, PBMCs: MDA-MB-231-7 (human ROR1 (on cells) [4]): 75.8%; TDCC EC50, PBMCs: MDA-MB-231 (human ROR1 (on cells) [5]): 24.6 nM; IFNγ release EC50, PBMCs: MDA-MB-231 (human ROR1 (on cells) [6]): 205 nM; Max IFNγ, PBMCs: MDA-MB-231 (human ROR1 (on cells) [6]): 1120 pg/mL; EC50 (human ROR1 (on cells) [7]): 0.81 nM; EC50 [8]: 2.8 nM; EC50 [9]: 4.1 nM"
B2,1.55e+06,2.03e+06,9.77e+06,4.49e+06,4.68e+06,0.192,0.151,0.0977,0.0306,0.0265,2270,2670,3670,4850,4970,2.24,~3,35700,47600,54100,"TDCC AUC, PBMCs: MDA-MB-231-1.3 (human ROR1 (on cells) [4]): 63700; TDCC AUC, PBMCs: MDA-MB-231-7 (human ROR1 (on cells) [4]): 72000; TDCC EC50, PBMCs: MDA-MB-231-0.2 (human ROR1 (on cells) [4]): 0.0137 nM; TDCC EC50, PBMCs: MDA-MB-231-0.4 (human ROR1 (on cells) [4]): 0.0125 nM; TDCC EC50, PBMCs: MDA-MB-231-0.6 (human ROR1 (on cells) [4]): 0.0105 nM; TDCC EC50, PBMCs: MDA-MB-231-1.3 (human ROR1 (on cells) [4]): 0.00896 nM; TDCC EC50, PBMCs: MDA-MB-231-7 (human ROR1 (on cells) [4]): 0.0047 nM; TDCC Emax, PBMCs: MDA-MB-231-0.2 (human ROR1 (on cells) [4]): 37.5%; TDCC Emax, PBMCs: MDA-MB-231-0.4 (human ROR1 (on cells) [4]): 50.2%; TDCC Emax, PBMCs: MDA-MB-231-0.6 (human ROR1 (on cells) [4]): 56.8%; TDCC Emax, PBMCs: MDA-MB-231-1.3 (human ROR1 (on cells) [4]): 65.4%; TDCC Emax, PBMCs: MDA-MB-231-7 (human ROR1 (on cells) [4]): 74.1%; TDCC EC50, PBMCs: MDA-MB-231 (human ROR1 (on cells) [5]): 43.9 nM; IFNγ release EC50, PBMCs: MDA-MB-231 (human ROR1 (on cells) [6]): 265 nM; Max IFNγ, PBMCs: MDA-MB-231 (human ROR1 (on cells) [6]): 1000 pg/mL; EC50 (human ROR1 (on cells) [7]): 0.72 nM; EC50 [8]: 19.8 nM; EC50 [9]: 26.2 nM"
